According to US20260152567A1 (CSPC MEGALITH BIOPHARMACEUTICAL, published 2026):

T1: recombinant human CD73 protein (human, UniProt P21589 27-547)
T1 construct: Bought soluble protein; The background says that CD73 forms a homodimer; also called soluble CD73; free CD73 protein
T1 sequence (looked up): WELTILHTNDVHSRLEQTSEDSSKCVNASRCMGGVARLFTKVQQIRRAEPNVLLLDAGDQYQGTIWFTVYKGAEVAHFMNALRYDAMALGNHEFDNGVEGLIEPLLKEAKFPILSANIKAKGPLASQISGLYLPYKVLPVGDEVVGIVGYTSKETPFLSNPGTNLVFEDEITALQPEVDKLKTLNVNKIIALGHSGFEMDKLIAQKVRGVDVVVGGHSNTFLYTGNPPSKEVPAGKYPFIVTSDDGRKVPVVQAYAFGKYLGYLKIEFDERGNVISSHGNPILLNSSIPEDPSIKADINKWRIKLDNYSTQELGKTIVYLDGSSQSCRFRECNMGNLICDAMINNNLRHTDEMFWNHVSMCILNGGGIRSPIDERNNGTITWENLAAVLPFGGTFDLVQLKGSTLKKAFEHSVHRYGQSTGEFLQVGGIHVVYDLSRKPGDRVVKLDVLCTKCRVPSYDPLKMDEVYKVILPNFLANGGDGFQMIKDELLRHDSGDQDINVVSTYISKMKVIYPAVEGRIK

T2: human CD73 on the cell surface (MDA-MB-231 and SKOV3 tumor cells) (human, UniProt P21589 27-549)
T2 construct: whole, on cells; also called cell surface CD73; CD73 on the surface of human tumor cells
T2 sequence (looked up): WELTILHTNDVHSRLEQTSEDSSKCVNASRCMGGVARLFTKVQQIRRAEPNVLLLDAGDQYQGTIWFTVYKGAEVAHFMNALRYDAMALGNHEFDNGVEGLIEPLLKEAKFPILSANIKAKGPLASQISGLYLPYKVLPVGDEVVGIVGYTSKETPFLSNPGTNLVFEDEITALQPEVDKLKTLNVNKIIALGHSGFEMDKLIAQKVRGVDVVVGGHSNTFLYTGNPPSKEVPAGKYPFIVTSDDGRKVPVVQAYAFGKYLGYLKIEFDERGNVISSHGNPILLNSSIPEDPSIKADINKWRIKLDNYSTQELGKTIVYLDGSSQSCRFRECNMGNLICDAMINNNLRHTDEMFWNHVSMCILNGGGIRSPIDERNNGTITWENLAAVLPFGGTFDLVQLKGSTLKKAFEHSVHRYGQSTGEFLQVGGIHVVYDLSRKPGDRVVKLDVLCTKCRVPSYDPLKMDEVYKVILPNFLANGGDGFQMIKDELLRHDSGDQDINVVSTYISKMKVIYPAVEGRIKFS

T3: cynomolgus monkey CD73 protein (cynomolgus monkey, UniProt A0A2K5V5U7 27-547)
T3 construct: construct not described
T3 sequence: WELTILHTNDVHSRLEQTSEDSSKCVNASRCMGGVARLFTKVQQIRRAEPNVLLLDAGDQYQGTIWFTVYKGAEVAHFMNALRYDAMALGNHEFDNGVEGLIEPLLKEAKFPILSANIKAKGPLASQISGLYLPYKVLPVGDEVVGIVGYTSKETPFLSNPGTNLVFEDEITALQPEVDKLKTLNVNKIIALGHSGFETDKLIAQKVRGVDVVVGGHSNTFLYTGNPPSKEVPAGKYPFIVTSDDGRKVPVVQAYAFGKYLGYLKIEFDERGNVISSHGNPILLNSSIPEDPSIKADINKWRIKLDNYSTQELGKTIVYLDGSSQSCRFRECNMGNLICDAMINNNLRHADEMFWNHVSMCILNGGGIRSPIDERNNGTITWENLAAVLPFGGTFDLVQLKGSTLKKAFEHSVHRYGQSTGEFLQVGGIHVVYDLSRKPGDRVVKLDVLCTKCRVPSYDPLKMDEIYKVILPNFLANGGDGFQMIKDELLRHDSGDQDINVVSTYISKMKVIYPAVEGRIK


Assays:
[1] = target: T1, recombinant human CD73 protein; test: ELISA, plate coated with recombinant human CD73 at 1 µg/mL
Experimental: The obtained eukaryotic expression vectors were transiently transferred into HEK293 cells, and the cells were then cultured for 6 days. The culture supernatants were harvested and purified by a ProteinA column to obtain the target antibodies, which were named 7C3C2-hIgG1 and 1F2F9-hIgG1, respectively. The affinity of the antibodies for the recombinant human CD73 protein (as described in Example 1) was determined using ELISA method. A elisa plate was coated with the recombinant human CD73 protein at a concentration of 1 μg/mL and washed 3 times with a PBST buffer. Then, the plate was blocked with a PBS buffer containing 2% BSA at 37° C. for 2 h and washed 3 times with a PBST buffer. 5-fold gradient dilutions (0-133.3 nM) of the test antibodies were added, and the mixture was incubated at 37° C. for 2 h. The plate was further washed 3 times with a PBST buffer. A horseradish peroxidase-labeled secondary antibody was added, and the mixture was incubated at 37° C. for 1 h. The plate was then washed 3 times with a PBST buffer. Chromogenic reaction was performed, and the absorbance values were read after the reaction was terminated.

[2] = target: T2, human CD73 on the cell surface …; test: flow cytometry on MDA-MB-231 cells
Experimental: (§1) In this example, the exemplary antibodies of the present application were compared with anti-CD73 antibodies described in other patent applications. Antibodies MEDI9447 and Hu101-28 (with CDR sequences from PCT patent applications WO 2016/075099 and WO 2018/137598, respectively) were cloned into eukaryotic expression vectors containing the hIgG1-kappa constant region. The binding ability of the humanized antibodies Hab7C3C2.5 and Hab1F2F9.15 to cell surface CD73 was assessed using tumor cell lines MDA-MB-231 and SKOV3 which endogenously express human CD73 on the cell surface. The cells were seeded in a 96-well plate at a density of 2×10⁶ cells/mL, with 100 μL per well. 4-fold gradient dilutions (0-100 nM) of the antibodies were added, and the mixture was incubated at 4° C. for 1 h. A goat anti-human secondary antibody was added, and the mixture was incubated at 4° C. in the dark for 50 min for labeling. The fluorescence intensity of the cells was then measured by a flow cytometer.

[3] = target: T2, human CD73 on the cell surface …; test: flow cytometry on SK-OV-3 cells
Experimental: as §1

[4] = target: T1, recombinant human CD73 protein; test: BLI (Fortebio), human CD73 on HIS1K biosensors, antibody as analyte
Experimental: The humanized antibody VH and VL were separately constructed into eukaryotic expression vectors containing the hIgG1-kappa constant region with L234A, L235A, P329A and P331S mutations (abbreviated as hIgG1 in the present application). The affinity of all humanized antibodies was assayed in this example. Human CD73 protein was immobilized onto HIS1K biosensors to achieve a binding response threshold of 0.3 nm. After a 120-second baseline step, the sensors were separately immersed in anti-CD73 antibody analytes diluted in a gradient with a 0.02% PBST buffer (each antibody was diluted in a 2-fold gradient with an initial concentration of 25 nM, resulting in 7 concentration gradients). The times for the ligand-analyte binding and dissociation were 120 s and 300 s, respectively. The data of the antigen-antibody affinity were calculated by regression according to the binding curves using an analysis software.

[5] = target: T3, cynomolgus monkey CD73 protein; test: BLI (Fortebio), cynomolgus CD73 on HIS1K biosensors, antibody as analyte
Experimental: In this example, the cross-binding ability of the exemplary humanized anti-CD73 antibodies of the present application to cynomolgus monkey CD73 was assayed by a Fortebio experiment. The specific implementation steps included immobilizing the cynomolgus monkey CD73 protein onto HIS1K biosensors. […] The times for the ligand-analyte binding and dissociation were 120 s and 300 s, respectively. The data of the antigen-antibody affinity were calculated by regression according to the binding curves using an analysis software.

Binder | EC50 [1] | EC50 [2] | EC50 [3] | Kd [4] | koff [4] | kon [4] | Kd [5] | koff [5] | kon [5]
1F2F9-hIgG1 (antibody, V domains shown, Human-mouse chimeric antibody, expressed in HEK293, Protein A purified; also called 1F2F9 chimeric antibody) VH: QVQLQQPGTELVKPGASVKLSCKASGYTFTSYWMHWVKQRPGHGLEWIGNINPSNGGTKYNEKFKSKATLTVDKSSSTAYLQLSSLTSEDSAVYYCARRDYGSPSYWGQGTLVTVSA VL: DIKMTQSPSSIYASLGERVTITCKASQDINSYLTWFQQKVGKSPKTLIYRTNILLDGVPSRFSGSGSGQDYSLTISSLDYEDMGIYHCLQYHEFPVTFGAGTKLELKR | 0.028 nM | – | – | – | – | – | – | – | –
MEDI9447 (antibody, V domains shown) VH: EVQLLESGGGLVQPGGSLRLSCAASGFTFSSYAYSWVRQAPGKGLEWVSAISGSGGRTYYADSVKGRFTISRDNSKNTLYLQMNSLRAEDTAVYYCARLGYGRVDEWGRGTLVTVSS VL: QSVLTQPPSASGTPGQRVTISCSGSLSNIGRNPVNWYQQLPGTAPKLLIYLDNLRLSGVPDRFSGSKSGTSASLAISGLQSEDEADYYCATWDDSHPGWTFGGGTKLTVLG | – | 0.49 nM | 0.17 nM | – | – | – | – | – | –
7C3C2-hIgG1 (antibody, V domains shown, Human-mouse chimeric antibody, expressed in HEK293, Protein A purified; also called 7C3C2 chimeric antibody) VH: QVQLQQSGPELVKPGASVKLSCKASGYTFTSYDINWVKQRPGQGLEWIGWIYPRDGFTKYNEKFKGKATLTVDTSSSTAYMELHSLTSEDSAVYFCARKEGYRGDWYFDVWGTGTTVTVSS VL: DIQMTQSPASLSASVGETVTITCRASGNVHNYLAWYQQKQGKSPQLLVYNAKTLADGVPSRFSGSGSGTQYSLKINSLQPEDFGSYYCQHFWSTPWTFGGGTELEIKR | 0.017 nM | – | – | – | – | – | – | – | –
Hab7C3C2.9 (antibody, human IgG1, kappa, L234A L235A, V domains shown, Humanized 7C3C2; also called Huab7C3C.9) VH: QVQLVQSGAEVKKPGASVKVSCKASGYTFTSYDINWVRQATGQGLEWMGWIYPRDGFTKYAQKFQGRVTITVNTSISTAYMELSSLRSEDTAVYYCARKEGYRGDWYFDVWGQGTTVTVSS VL: DIQMTQSPSSLSASVGDRVTITCRASGNVHNYLAWYQQKPGKAPKLLLYNAKTLASGVPSRFSGSGSGTDYTLTISSLQPEDFATYYCQHFWSTPWTFGGGTELEIKR | – | – | – | 1.03 nM | 0.00381 s⁻¹ | 3.7e+06 M⁻¹ s⁻¹ | 0.852 nM | 0.00388 s⁻¹ | 4.56e+06 M⁻¹ s⁻¹
Hab1F2F9.12 (antibody, human IgG1, kappa, L234A L235A, V domains shown, Humanized 1F2F9; also called Huab1F2F9.12) VH: QVQLVQSGAEVKKPGASVKVSCKASGYTFTSYWMHWVRQAPGQRLEWMGNINPSNGGTKYNEKFQGRVTITVDTSASTAYMELSSLRSEDTAVYYCARRDYGSPSYWGQGTTVTVSS VL: DIQMTQSPSSLSASVGDRVTITCKASQDINSYLTWFQQKPGKAPKSLIYRTNILLDGVPSRFSGSGSGTDYTLTISSLQPEDFATYYCLQYHEFPVTFGGGTKLEIKR | – | – | – | 0.72 nM | 0.00133 s⁻¹ | 1.85e+06 M⁻¹ s⁻¹ | 0.681 nM | 0.00152 s⁻¹ | 2.22e+06 M⁻¹ s⁻¹
